B1: HHH_rd1_0493 (parent)
chain: RDEDEKEKIKEALKRGNEDKAKEIAKRANVSPEEYERLRKEAE

Variants of: B1
Assay: folding stability dG (cDNA display proteolysis); higher = more stable
Conditions: PBS, room temperature

Folding stability dG [kcal/mol]: each site, then its substitutions
E5: G 2.08, H 3.3, P 3.46, Y 4.39, L 3.6, F 4.03, I 4.07, K 2.24, R 2.1, C 2.42, M 3.33, N 2.71, T 3.37, D 3, W 4.45, S 3.02, Q 2.87, V 4.07, A 3.7
D2: T 3.03, N 3, R 2.79, V 3.17, Q 3.15, K 2.82, Y 3.38, M 2.86, W 3.17, S 2.71, L 3.39, P 3.06
K8: C 2.37, Y 2.09, D 2.25, R 3, F 2.12, P 0.847, M 3.08, L 3.06, E 2.66, T 2.27, V 1.94, W 2.44, Q 3.15, G 2.34, A 3.29, N 2.55, I 2.1, S 2.78, H 2.42
D4: H 2.82, R 2.88, Y 2.9, G 2.8, M 2.96, C 2.96, S 3.03, I 2.95, T 2.91, K 2.81, E 2.98, W 3.02, Q 2.88, V 2.88, A 2.83, P 2.48, N 2.89, L 3.01, F 2.73
E7: R 3.15, W 3.29, K 3.1, S 2.92, I 3.06, Q 3.13, D 2.7, H 2.94, Y 2.85, N 2.96, M 3.12, A 3.08, V 2.97, G 2.62, P 1.58, F 3, L 3.09, T 3
I9: L 2.28, P 0.579, D 0.479, W 0.614, K 0.396, M 1.48, T 0.61, S 0.587, E 0.589, Y 0.577, N 0.856, F 0.774, R 0.406, H 0.471, G 0.603, C 1.26, V 2.09, A 0.796, Q 0.476
K10: H 0.938, A 1.09, W 1.57, C 2.32, D 0.644, S 1.27, G 0.528, Q 0.854, V 2.28, F 2.11, Y 2.01, R 2.49, T 1.7, I 2.8, P 0.064, N 0.92, M 2.02, E 0.847, L 2.79
E3: D 3.11, A 2.88, S 2.89, I 2.75, P 2.79, W 3, N 3, H 3, F 2.93, L 2.89, M 2.81, V 2.76, K 2.93, T 2.94, Y 3.01, Q 3.06, G 2.88, C 2.57, R 2.93
E11: A 2.82, C 2.99, D 2.96, F 1.56
K6: I 3.24, E 2.27, N 2.53, M 3.11, T 2.61, C 1.8, S 2.56, D 1.85, F 3.23, L 3.25, Y 3.4, R 3.3, G 2.46, Q 2.39, V 2.74, W 3.32, A 2.57, H 3.07, P 1.72

From the MegaScale stability set (Tsuboyama et al. 2023)
